Measured values published in the supplement of paper PMC10567573.

B1: IQUB (parent)
chain: EADYEDDSKIAFLMQLQDIQYLTE

Variants of: B1
Assay: protein stability index of a GFP-peptide fusion (GPS, HEK-293T) (PSI 1-6); higher = more stable
Conditions: c terminus: a fixed tail appended
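Note: lentivirally expressed fusions sorted by FACS into six bins by GFP to DsRed ratio, PSI derived from sequencing read proportions per bin multiplied by bin number.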

In order of rising protein stability index:
1. D7F  1.17
2. D18I  1.39
3. D18Y  1.54
4. T23I  1.54
5. D3F  1.62
6. E1V  1.74
7. D18A  1.74
8. D6M  1.75
9. Q15F  1.77
10. K9I  1.83
11. D18C  1.84
12. K9C  1.86
13. D6Y  1.86
14. T23C  1.87
15. D7C  1.88
16. T23M  1.92
17. D7I  1.93
18. D3P  1.98
19. D3M  2.03
20. D7M  2.03
21. Q15L  2.04
22. D3A  2.1
23. T23L  2.12
24. A11L  2.12
25. E1W  2.17
26. Q17M  2.17
27. D7Y  2.18
28. D7N  2.19
29. D6A  2.21
30. D6I  2.21
31. D18V  2.22
32. E5S  2.24
33. T23A  2.26
34. E1K  2.27
35. E5Y  2.27
36. E5I  2.29
37. M14L  2.32
38. D3R  2.34
39. D6P  2.34
40. A2Q  2.36
41. Q15M  2.36
42. E1M  2.38
43. A11F  2.38
44. D6G  2.38
45. M14W  2.42
46. E5L  2.43
47. A2R  2.44
48. K9A  2.48
49. E5G  2.49
50. D3V  2.51
51. D3S  2.51
52. Q17Y  2.51
53. Q17R  2.57
54. A2F  2.58
55. D3K  2.58
56. D18N  2.58
57. E1P  2.6
58. E5K  2.6
59. M14I  2.6
60. K9W  2.61
61. Q15A  2.61
62. D6K  2.63
63. D18K  2.65
64. A11M  2.66
65. Q17F  2.68
66. D6C  2.68
67. S8M  2.7
68. M14V  2.7
69. A2G  2.71
70. A2C  2.75
71. E5C  2.76
72. D3G  2.77
73. E5P  2.79
74. D18P  2.83
75. A11R  2.83
76. Q17K  2.87
77. D3E  2.88
78. A2K  2.89
79. A2S  2.89
80. K9P  2.9
81. Q15K  2.9
82. D18G  2.92
83. M14Y  2.92
84. E1A  2.95
85. L16I  2.95
86. Q17T  2.96
87. A11H  2.97
88. D7H  2.98
89. A2I  2.99
90. K9S  3.06
91. L22W  3.07
92. Y4M  3.07
93. Q15D  3.1
94. E5N  3.12
95. Q17H  3.13
96. A11T  3.14
97. D7E  3.14
98. Y4F  3.16
99. Y4V  3.18
100. D7Q  3.2
101. L22Y  3.21
102. K9Q  3.21
103. Q17P  3.21
104. Y4I  3.21
105. M14C  3.21
106. Y4H  3.35
107. K9H  3.36
108. Q15P  3.39
109. M14A  3.4
110. I10V  3.42
111. L22V  3.42
112. Y4R  3.42
113. E5D  3.42
114. Q17E  3.43
115. Y21M  3.45
116. A2L  3.46
117. A11Q  3.49
118. Y21K  3.51
119. Y4L  3.51
120. S8N  3.53
121. A2D  3.53
122. F12V  3.54
123. K9D  3.63
124. Y4T  3.66
125. L22C  3.67
126. Q17D  3.73
127. Y21C  3.74
128. M14R  3.75
129. Q15G  3.76
130. Y21P  3.77
131. A11N  3.77
132. Y4Q  3.78
133. Y21A  3.81
134. A11P  3.82
135. Y21N  3.87
136. T23Q  3.89
137. I10S  3.91
138. L22R  3.94
139. L16E  3.96
140. Y4K  3.96
141. L16R  3.99
142. I10K  4.01
143. Y21T  4.06
144. M14E  4.06
145. L22H  4.07
146. T23D  4.09
147. I10Q  4.12
148. I10G  4.13
149. L16A  4.13
150. Y4P  4.15
151. I10N  4.17
152. L16Q  4.19
153. L16S  4.26
154. M14N  4.26
155. M14D  4.27
156. F12C  4.29
157. L16N  4.33
158. L16H  4.43
159. M14P  4.46
160. F12K  4.51
161. F12S  4.61
162. L22N  4.65
163. F12G  4.66
164. F12Q  4.78
165. F12T  4.94
166. L22D  4.97
167. F12E  5.06
